# Target: human factor Xa (human)
# Sequence (P00742 41-488): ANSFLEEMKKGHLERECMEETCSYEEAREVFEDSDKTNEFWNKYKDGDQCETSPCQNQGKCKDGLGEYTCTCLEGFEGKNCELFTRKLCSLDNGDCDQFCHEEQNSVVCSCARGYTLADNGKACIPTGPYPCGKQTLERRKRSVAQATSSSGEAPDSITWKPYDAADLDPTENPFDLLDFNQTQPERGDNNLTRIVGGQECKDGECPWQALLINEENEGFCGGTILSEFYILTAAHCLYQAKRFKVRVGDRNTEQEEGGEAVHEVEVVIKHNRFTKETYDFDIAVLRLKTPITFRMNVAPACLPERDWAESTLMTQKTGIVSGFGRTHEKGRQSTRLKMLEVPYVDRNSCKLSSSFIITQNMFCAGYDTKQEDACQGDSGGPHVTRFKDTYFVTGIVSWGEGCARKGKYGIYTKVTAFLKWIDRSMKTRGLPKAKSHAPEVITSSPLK
row,Substance,"second-order rate constant of factor Xa inhibition (kapp), with pentasaccharide [M⁻¹ s⁻¹]"
1,S137A/S380C antithrombin (from UniProt P01008 33-464) (natural protein),194000
2,S137A/V375C antithrombin (from UniProt P01008 33-464) (natural protein),664000
3,S137A/V375C/S380C antithrombin (from UniProt P01008 33-464) (natural protein),331
4,recombinant beta-glycoform S137A antithrombin (from UniProt P01008 33-464) (natural protein),756000

# — article PMC2697666 (Journal of molecular biology, 2009)
